Assay results taken from paper PMC7955032, “The amyloid structure of mouse RIPK3 (receptor interacting protein kinase 3) in cell necroptosis” (Nature Communications, 2021).

B1: mouse RIPK3 409-486 Q449D (domain or fragment, UniProt Q9QZL0 409-486, looked up)
chain: GPHPQRNQGDGRHGTPWYPWTPPNPMTGPPALVFNNCSEVDIGNYNSLVAPPRTTASSSAKYDQAQFGRGRGWQPFHK
notes: RIPK3, mouse, residues 409-486, same construction as the SSNMR sample, with Q449D; Same construct as m1 with one substitution; source: E. coli Transetta (DE3), purified (Ni-NTA, reverse phase HPLC)
B2: mouse RIPK3 409-486 L456D (domain or fragment, UniProt Q9QZL0 409-486, looked up)
chain: GPHPQRNQGDGRHGTPWYPWTPPNPMTGPPALVFNNCSEVQIGNYNSDVAPPRTTASSSAKYDQAQFGRGRGWQPFHK
notes: RIPK3, mouse, residues 409-486, same construction as the SSNMR sample, with L456D; Same construct as m1 with one substitution; source: E. coli Transetta (DE3), purified (Ni-NTA, reverse phase HPLC)
B3: mouse RIPK3 409-486 F442D (domain or fragment, UniProt Q9QZL0 409-486, looked up)
chain: GPHPQRNQGDGRHGTPWYPWTPPNPMTGPPALVDNNCSEVQIGNYNSLVAPPRTTASSSAKYDQAQFGRGRGWQPFHK
notes: RIPK3, mouse, residues 409-486, same construction as the SSNMR sample, with F442D; Same construct as m1 with one substitution; source: E. coli Transetta (DE3), purified (Ni-NTA, reverse phase HPLC)

Columns and labels:
[1] = biological target: the molecule itself; test: solid-state NMR; MAS SSNMR of isotope-labelled fibrils, 700 MHz, 303 K, 15 kHz; structure calculated with Xplor-NIH for 5 copies of residues 441-460; intermolecular contacts from [2-13C]-glycerol labelled sample and from a 1:1 mix of 15N- and 13C-labelled protein
[2] = biological target: the molecule itself; test: thioflavin T fluorescence of fibril growth; 2 mM protein in 6 M GudHCl diluted to 20 µM in 10 mM PB buffer pH 7.4, 50 µM ThT, room temperature, about 4 h

Protein	binding result [1]	binding result [2]
B1	binds	
B2	binds	
B3		binds
